According to patent US10933119B2, “Aortopathy” (University of Leicester, priority 2015, dated 2021):

Tests used:
[1] = test system: leukocytes in peripheral blood; experiment: Number of leukocytes in peripheral blood after GM-CSF blockade by neutralizing antibody; format: in vivo; design: Lymphocytes in peripheral blood: unit not given here; conditions: KLF6fl/fl;LysM Cre mice, CaCl2 + AngII
Protocol: (§1) To induce aortic dissection/intramural hematoma, peri-aortic application of CaCl2 was done to the abdominal aorta, followed by two-week infusion of AngII (2000 ng kg−1 min−1) (40). In detail, mice were anesthetized and underwent laparotomy at 10- to 13-weeks of age. The abdominal aorta between the renal arteries and bifurcation of the iliac arteries was isolated from the surrounding retroperitoneal structure, and 0.5 M CaCl2 was applied to the external surface of the infrarenal aorta. NaCl (0.9%) was substituted for CaCl2 in sham control mice. The aorta was rinsed with 0.9% sterile saline after 15 min and the incision was closed.
(§2) Wild-type mice were injected intraperitoneally with 110 mg kg−1 of clodronate liposomes or equal volume of PBS liposomes 2 days prior and 7 days after induction of aortic dissection. Neutralizing antibody against GM-CSF (300 μg, R&D systems) or control anti-rat IgG antibody (Equitech Bio) was administered every other day by intraperitoneal injection. Recombinant murine GM-CSF (10, 50, 100 μg kg−1 day−1, PeproTech) was administered for two weeks or four weeks after induction of aortic dissection.
Aortas were minced into 3- to 4-mm pieces and placed in 1 ml digestion solution containing collagenase type II (1.25 mg ml−1, Worthington) and porcine pancreatic elastase (50 μg ml−1, Worthington) in base solution of Accumax (Innovative Cell Technologies). Aortic tissue was digested at room temperature with agitation for 1 h. After digestion, cells were washed in FACS buffer (5% FCS in PBS) at 2000 rpm for 5 min. Aortic macrophages were isolated using CD11b microbeads according to the manufacturer's instructions (Miltenyi Biotec). Spleen was homogenized and passed through a cell strainer to obtain single-cell suspensions. Bone marrow-derived cells were taken from the femur and tibia of 5- to 6-week-old mice. Blood was collected in heparin-coated vials and then 1.2% dextran was added for 45 min at room temperature. Counting of peripheral leukocytes was done by automated hematology analyzer (XT-2000i, Sysmex). […]

[2] = Plasma GM-CSF concentration (ELISA) after recombinant GM-CSF infusion; format: in vivo; conditions: wild-type mice
Protocol: as §2
Plasma levels of IL-6, MCP-1 and GM-CSF in mice or in humans with or without aortic dissection/intramural hematoma were assayed with commercially available quantikine ELISA kits (R&D systems) according to the manufacturer's instructions. Sera of healthy volunteers and of patients with aortic aneurysm, coronary artery disease or with aortic dissection were obtained with informed consent under a protocol approved by the University of Tokyo hospital research ethics committee.

wild-type mice = experiment: Murine aortic dissection/intramural hematoma model with recombinant GM-CSF administration; format: in vivo
Protocol: as §1, §2
Aortas from mice were embedded in paraffin then 5-μm-thick serial sections were prepared for Elastic Von Gienson (EVG) and hematoxylin/eosin (HE) staining. Digital images of EVG-stained aortas with reference scale were used for absolute measurement of diameter. Human aortic tissue was obtained from patients undergoing surgical aortic repair with informed consent under a protocol approved by the University of Tokyo hospital research ethics committee. Paraffin-embedded sections were taken from the aorta for EVG staining and immunohistochemistry. […]

[3] = test system: leukocytes in peripheral blood; experiment: Number of leukocytes in peripheral blood after GM-CSF administration; format: in vivo, mice; design: Lymphocytes in peripheral blood: unit not given here; conditions: for Lymphocytes in peripheral blood / Monocytes in peripheral blood / Neutrophils in peripheral blood: wild type mice
Protocol: as §1, §2
Aortas were minced into 3- to 4-mm pieces and placed in 1 ml digestion solution containing collagenase type II (1.25 mg ml−1, Worthington) and porcine pancreatic elastase (50 μg ml−1, Worthington) in base solution of Accumax (Innovative Cell Technologies). Aortic tissue was digested at room temperature with agitation for 1 h. After digestion, cells were washed in FACS buffer (5% FCS in PBS) at 2000 rpm for 5 min. Aortic macrophages were isolated using CD11b microbeads according to the manufacturer's instructions (Miltenyi Biotec). Spleen was homogenized and passed through a cell strainer to obtain single-cell suspensions. Bone marrow-derived cells were taken from the femur and tibia of 5- to 6-week-old mice. Blood was collected in heparin-coated vials and then 1.2% dextran was added for 45 min at room temperature. Counting of peripheral leukocytes was done by automated hematology analyzer (XT-2000i, Sysmex). Neutrophils were isolated from bone marrow using a neurophil isolation kit according to the manufacturer's instructions (Miltenyi Biotec). From single-cell suspensions of spleen, bone marrow and blood, erythrocytes were lysed using ACK lysis buffer for 5, 3 and 2 min on ice, respectively. Cells were centrifuged at 2000 rpm for 5 min to remove the ACK lysis buffer, then the single-cell suspensions were resuspended and washed in FACS buffer, followed by centrifugation at 2000 rpm for 5 min.

B1: GM-CSF: Recombinant murine GM-CSF (PeproTech), granulocyte macrophage colony-stimulating factor (protein, UniProt P01587 18-141, looked up)
Granulocyte-macrophage …: APTRSPITVTRPWKHVEAIKEALNLLDDMPVTLNEEVEVVSNEFSFKKLTCVQTRLKIFEQGLRGNFTKLKGALNMTASYYQTYCPPTPETDCETQVTTYADFIDSLKTFLTDIPFECKKPGQK
- Lymphocytes in peripheral blood [1]: 1843.3 ± 311.1
- Monocytes in peripheral blood [1]: 82.5 ± 12.5 cells/µL
- Neutrophils in peripheral blood [1]: 786 ± 118 cells/µL
- increased circulating levels of GM-CSF ([2]; GM-CSF alone, 2 weeks infusion): at least 180.9 fold
- circulating levels of GM-CSF ([2]; combination of GM-CSF with CaCl2 + AngII compared to each alone): markedly elevated
- aortic dissection/intramural hematoma (wild-type mice; wild-type mice subjected to aortic inflammation (CaCl2+AngII) plus GM-CSF): caused
- death of mice (wild-type mice; wild-type mice, GM-CSF with CaCl2+AngII): died from aortic rupture
- aortic dissection/intramural hematoma (wild-type mice; wild-type mice, administration of GM-CSF alone): did not develop
- number of neutrophils in peripheral blood ([3]; 14 days of GM-CSF administration): no difference
- number of neutrophils in peripheral blood ([3]; GM-CSF administration, early phase): markedly increased
- number of circulating lymphocytes ([3]; GM-CSF administration, early phase (5 days) or developed phase (14 days)): did not change
- Lymphocytes in peripheral blood ([3]; CaCl2 + AngII, 5 days): 1803.3 ± 124.0
- Monocytes in peripheral blood ([3]; CaCl2 + AngII, 5 days): 387 ± 112 cells/µL
- Neutrophils in peripheral blood ([3]; CaCl2 + AngII, 5 days): 1690 ± 147 cells/µL
- Lymphocytes in peripheral blood ([3]; CaCl2 + AngII, 14 days): 1667.2 ± 371.3
- Monocytes in peripheral blood ([3]; CaCl2 + AngII, 14 days): 310 ± 45.9 cells/µL
- Neutrophils in peripheral blood ([3]; CaCl2 + AngII, 14 days): 1050 ± 259 cells/µL
- Lymphocytes in peripheral blood ([3]; Sham, 5 days): 3150.0 ± 234.5
- Monocytes in peripheral blood ([3]; Sham, 5 days): 353 ± 103 cells/µL
- Neutrophils in peripheral blood ([3]; Sham, 5 days): 2540 ± 454 cells/µL
- Lymphocytes in peripheral blood ([3]; Sham, 14 days): 3052.0 ± 420.3
- Monocytes in peripheral blood ([3]; Sham, 14 days): 295 ± 66.2 cells/µL
- Neutrophils in peripheral blood ([3]; Sham, 14 days): 976 ± 117 cells/µL
